Experiments:
CBC [1] = target: T1, CBC (Homo sapiens, UniProt P52298); experiment: ITC, binding to CBC without cap analogue; settings: ITC (MicroCal ITC200), 25 °C, 20 mM HEPES, 120 mM NaCl, 2 mM TCEP, pH 7.8, single-site fit; no cap analogue pre-bound; mean ± SD of at least two independent experiments; SD
T1 sequence (P52298 1-156): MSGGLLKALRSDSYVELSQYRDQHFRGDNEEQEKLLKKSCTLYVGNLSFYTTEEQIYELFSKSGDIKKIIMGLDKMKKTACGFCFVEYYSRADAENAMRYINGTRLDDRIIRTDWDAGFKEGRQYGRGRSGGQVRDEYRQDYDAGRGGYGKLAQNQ
T1 sequence (Q09161 20-790 partner): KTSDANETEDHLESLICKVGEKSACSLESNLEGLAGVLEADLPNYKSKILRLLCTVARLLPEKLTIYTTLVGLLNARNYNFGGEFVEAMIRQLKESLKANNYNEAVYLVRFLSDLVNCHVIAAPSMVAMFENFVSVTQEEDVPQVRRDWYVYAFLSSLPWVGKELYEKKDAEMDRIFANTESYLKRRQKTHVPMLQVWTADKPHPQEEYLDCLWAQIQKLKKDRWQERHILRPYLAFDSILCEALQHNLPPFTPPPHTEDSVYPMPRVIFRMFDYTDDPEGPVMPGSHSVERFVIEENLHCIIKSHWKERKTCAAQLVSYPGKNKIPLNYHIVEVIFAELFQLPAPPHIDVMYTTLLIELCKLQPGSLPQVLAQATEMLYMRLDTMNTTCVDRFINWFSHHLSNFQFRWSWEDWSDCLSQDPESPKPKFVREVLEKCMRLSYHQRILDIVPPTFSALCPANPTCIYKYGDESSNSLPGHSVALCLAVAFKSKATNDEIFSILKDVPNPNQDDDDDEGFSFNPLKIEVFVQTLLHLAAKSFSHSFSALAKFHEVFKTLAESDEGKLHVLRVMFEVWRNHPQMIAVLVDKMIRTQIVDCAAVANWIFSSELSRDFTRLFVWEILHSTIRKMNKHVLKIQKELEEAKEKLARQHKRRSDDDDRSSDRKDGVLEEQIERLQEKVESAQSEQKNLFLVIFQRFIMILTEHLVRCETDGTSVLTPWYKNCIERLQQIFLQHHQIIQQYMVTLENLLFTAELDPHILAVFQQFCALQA
Description: hARS2 isoform-4 (871 residues, UniProt:Q9BXP5-4, also known as isoform-e, NP_001122326) constructs (residues 147–871, 147–845, 763–871, 763–845, 827–871) hNELF-E (NM_002904.5) (244–380, 244–360) and hPHAX (NM_032177.3) (1–394, 103–294, 103–308, 103–327) were cloned into pETM11 (EMBL). Full-length hNELF-E (1–380) was cloned into pFASTBac and CBP20 into pETM30. Primers used are given in Supplementary Table 2. All constructs were expressed in E. coli Rosetta 2 (Novagen), except full-length NELF-E and CBP80ΔNLS (CBP80 with residues 1–19 deleted[2]), which were expressed in High Five insect cells (Life Technology). Cells were harvested and lysed by sonication in lysis buffer containing 50 mM HEPES, pH 7.8, 300 mM NaCl, 10% (v/v) glycerol, 5 mM β-mercaptoethanol. Lysates were clarified by centrifugation and applied on an equilibrated Ni-sepharose column (GE Healthcare), washed with 20 mM imidazole in lysis buffer, and eluted with 300 mM imidazole in lysis buffer. While dialysing into 20 mM HEPES, pH 7.8, 120 mM NaCl, 10% (v/v) glycerol, 5 mM β-mercaptoethanol, the N-terminal 6-histidine-tag was cleaved with His-tagged Tobacco Etch Virus (TEV) protease overnight in a ratio 1:100 mg TEV per mg protein. The cleaved protein was further purified first on Ni-sepharose to remove TEV and then using an anion exchange column (HiTrap Q, GE Healthcare) followed if necessary by a Heparin column (GE Healthcare). In both cases a NaCl gradient from 50 to 800 mM in 20 mM HEPES 7.8, 0.5 mM tris(2-carboxyethyl)phosphine was used. To reconstitute the CBC heterodimer, cleared His-tagged CBP20 lysate was first immobilised on a Ni-sepharose column. After washing the column with lysis buffer, the cleared CBP80 lysate was applied to the column and further purification steps performed as described above. To remove the access of CBP20 the flow through of the Ni-column after TEV cleavage was loaded on an anion exchange column (HiTrap Q, GE Healthcare) and CBC eluted by a NaCl gradient as described above. In the text we refer to CBP80ΔNLS and CBP80ΔNLS-CBP20 as CBP80 and CBC, respectively. ARS2^845–871, NELF-E^354–380, and NELF-E^360–380 peptides, with or without FAM label at the N-terminus, were purchased from GenScript.

m^7GTP-CBC = target: T2, m^7GTP-CBC (Homo sapiens, UniProt P52298+Q09161); experiment: Fluorescence polarisation with FAM-labelled C-terminal peptides; assay type: binding; settings: competition, 40 nM FAM peptide, 25 µM m^7GTP, 25 °C, n = 3
T2 construct: 6-histidine tag (pETM30 vector) (N, cleaved yes); made in house; host or cells: CBP20 in E. coli Rosetta 2; CBP80ΔNLS in High Five insect cells; heterodimer reconstituted on Ni-sepharose
T2 sequence (Q09161 20-790): T1 sequence (Q09161 20-790 partner)
T2 sequence (P52298 1-156): T1 sequence (P52298 1-156)
Protocol: (§1) Fig. 4 Incompatibility of ARS2-PHAX and NELF-E binding to CBC. a, b Competition on m^7GTP-sepharose. a In separate experiments, different amounts of ARS2^147–871 were added to preformed CBC–NELF–E complex immobilised on m^7GTP-sepharose. […] The fluorophore FAM is represented with a star. Note that different constructs of NELF-E and ARS2 were used in c, d, and e compared to f, g, and h and are therefore represented by slightly different shapes. Error bars show the SD of three experiments
Fluorescence anisotropy binding assays were performed with N-terminal FAM-labelled ARS2^845–871 and […] peptides. 40 nM peptides were titrated with increasing concentrations of proteins in 20 mM HEPES, pH 7.8, 120 mM NaCl, 2 mM tris(2-carboxyethyl)phosphine. For the competition assay CBC–ARS2 and CBC–NELF–E complexes were preformed in the presence of 25 µM m^7GTP using 40 nM ARS2^827–871(FAM) peptide together with 60 nM CBC and 40 nM NELF-E^354–380(FAM) peptide with 1 µM CBC. […] To observe a change in polarisation at reasonable protein concentrations, CBC and NELF-E^244–380 concentrations that saturate half of the FAM-labelled peptides were used to preform the individual complexes. Fluorescence polarisation was measured at 25 °C with a microplate reader (CLARIOstar BMG LABTECH) using an excitation wavelength of 495 nm and emission wavelength of 515 nm. For analysis the polarisation value for the peptide alone was subtracted from the measurements.

CBC [2] = target: T1, CBC; experiment: Size exclusion chromatography (gel filtration) co-elution with CBC, without m^7GTP; assay type: binding; settings: fractions analysed by SDS-PAGE, absence of m^7GTP
Protocol: (§2) Fig. 1 The interaction of CBC with ARS2 is enhanced in the presence of m^7GTP. a Schematic diagram of the domain structure of ARS2 based on ref. [26]. b Gel filtration chromatogram and Coomassie-stained SDS-PAGE of CBC-ARS2 in the presence and absence of m^7GTP. Purified recombinant CBC and ARS2^147–871 were mixed with (orange) or without (blue) 500 µM m^7GTP and subjected to gel filtration. Their elution profiles were overlaid (left) and single fractions analysed by SDS-PAGE (middle and right). Purified recombinant CBC and C-terminally truncated ARS2^147–845 were mixed with 500 µM m^7GTP and analysed in a similar way (bottom left). c ITC data and curve fit to derive the affinity of different ARS2 constructs for CBC. CBC or m^7GTP-CBC in the sample cell was titrated by ARS2. […] K D values and standard deviation represent the average from at least two independent experiments. d Sequence alignment of the C-terminus of ARS2. Conserved residues are highlighted in red. Figure made with ESPript[54]
Fig. 2 The interaction of CBC with NELF-E is enhanced in the presence of m^7GTP. a Schematic diagram of the domain structure of NELF-E. b Gel filtration chromatogram and Coomassie-stained SDS-PAGE of CBC-NELF-E in the presence and absence of m^7GTP. […] Their elution profiles were overlaid (left) and single fractions analysed by SDS-PAGE (middle and right). […]

CBC [3] = target: T1, CBC; experiment: Size exclusion chromatography (gel filtration) co-elution with CBC, with m^7GTP; assay type: binding; settings: gel filtration with 500 µM m^7GTP, fractions analysed by SDS-PAGE
Protocol: as §2
Fig. 2 The interaction of CBC with NELF-E is enhanced in the presence of m^7GTP. a Schematic diagram of the domain structure of NELF-E. b Gel filtration chromatogram and Coomassie-stained SDS-PAGE of CBC-NELF-E in the presence and absence of m^7GTP. Purified recombinant CBC and NELF-E were mixed with (orange) or without (green) 500 µM m^7GTP and subjected to gel filtration. Their elution profiles were overlaid (left) and single fractions analysed by SDS-PAGE (middle and right). Purified recombinant CBC and NELF-E^244–360 were mixed together with 500 µM m^7GTP and similarly analysed (bottom left). c ITC data and curve fit to derive the affinity of different NELF-E constructs for CBC. CBC or m^7GTP-CBC in the sample cell was titrated by NELF-E^244–380 or NELF-E^360–380. The data were presented as described in the caption to Fig. 1c. d Sequence alignment of the C-terminus of NELF-E. Conserved residues are highlighted in red. Figure made with ESPript[54]

[4] = tested on: CBC–NELF–E complex immobilised on m^7GTP-sepharose; experiment: Displacement pull down on m^7GTP-sepharose, CBC–NELF–E; assay type: binding, human; settings: increasing amounts added, 1 h at 4 °C, flow through and elution by SDS-PAGE
Protocol: as §1
CBC-NELF-E^1–380 or CBC-PHAX^1–394 were immobilised on m^7GTP-sepharose and incubated for 1 h at 4 °C with different amounts of ARS2^147–871 or NELF-E^1–380 in 20 mM HEPES, pH 7.8, 120 mM NaCl, 2 mM tris(2-carboxyethyl)phosphine, respectively. The flow through, as well as the elution from the beads after extensive washing, was analysed by SDS-PAGE followed by Coomassie staining.

B1: PHAX 103–327: human PHAX residues 103–327, includes the full PHAX RBD (protein, UniProt Q9H814 103-327, looked up, fragment)
chain: SQKPPVAGGKKINNIWGAVLQEQNQDAVATELGILGMEGTIDRSRQSETYNYLLAKKLRKESQEHTKDLDKELDEYMHGGKKMGSKEEENGQGHLKRKRPVKDRLGNRPEMNYKGRYEITAEDSQEKVADEISFRLQEPKKDLIARVVRIIGNKKAIELLMETAEVEQNGGLFIMNGSRRRTPGGVFLNLLKNTPSISEEQIKDIFYIENQKEYENKKAARKRRT
- Kd (CBC [1]): 350 ± 71 nM
- Change of polarisation on titration to m^7GTP-CBC-ARS2^845–871(FAM) (m^7GTP-CBC; 60 nM CBC): did not affect the polarisation
- Change of polarisation on titration to m^7GTP-CBC-NELF-E^354–380(FAM) (m^7GTP-CBC; 1 µM CBC): did not change the polarisation

B2: PHAX 103–264: human PHAX residues 103–264 (protein, UniProt Q9H814 103-264, looked up, fragment)
chain: SQKPPVAGGKKINNIWGAVLQEQNQDAVATELGILGMEGTIDRSRQSETYNYLLAKKLRKESQEHTKDLDKELDEYMHGGKKMGSKEEENGQGHLKRKRPVKDRLGNRPEMNYKGRYEITAEDSQEKVADEISFRLQEPKKDLIARVVRIIGNKKAIELLME
- Interaction with CBC by SEC (CBC [2]): No interaction via SEC

B3: ARS2^147–871: human ARS2 lacking the putatively unstructured N-terminal region (protein, UniProt Q9BXP5 147-871, looked up, fragment)
chain: PVMKTFKEFLLSLDDSVDETEAVKRYNDYKLDFRRQQMQDFFLAHKDEEWFRSKYHPDEVGKRRQEARGALQNRLRVFLSLMETGWFDNLLLDIDKADAIVKMLDAAVIKMEGGTENDLRILEQEEEEEQAGKPGEPSKKEEGRAGAGLGDGERKTNDKDEKKEDGKQAENDSSNDDKTKKSEGDGDKEEKKEDSEKEAKKSSKKRNRKHSGDDSFDEGSVSESESESESGQAEEEKEEAEEALKEKEKPKEEEWEKPKDAAGLECKPRPLHKTCSLFMRNIAPNISRAEIISLCKRYPGFMRVALSEPQPERRFFRRGWVTFDRSVNIKEICWNLQNIRLRECELSPGVNRDLTRRVRNINGITQHKQIVRNDIKLAAKLIHTLDDRTQLWASEPGTPPLPTSLPSQNPILKNITDYLIEEVSAEEEELLGSSGGAPPEEPPKEGNPAEINVERDEKLIKVLDKLLLYLRIVHSLDYYNTCEYPNEDEMPNRCGIIHVRGPMPPNRISHGEVLEWQKTFEEKLTPLLSVRESLSEEEAQKMGRKDPEQEVEKFVTSNTQELGKDKWLCPLSGKKFKGPEFVRKHIFNKHAEKIEEVKKEVAFFNNFLTDAKRPALPEIKPAQPPGPAQILPPGLTPGLPYPHQTPQGLMPYGQPRPPILGYGAGAVRPAVPTGGPPYPHAPYGAGRGNYDAFRGQGGYPGKPRNRMVRGDPRAIVEYRDLDAPD
- Interaction with CBC by SEC in the presence of m^7GTP (CBC [3]): only co-eluted in the presence of the cap analogue m^7GTP
- Displacement of NELF-E from immobilised m^7GTP–CBC–NELF–E complex [4]: could displace NELF-E

B4: PHAX 120–308: human PHAX residues 120–308 (protein, UniProt Q9H814 120-308, looked up, fragment)
chain: AVLQEQNQDAVATELGILGMEGTIDRSRQSETYNYLLAKKLRKESQEHTKDLDKELDEYMHGGKKMGSKEEENGQGHLKRKRPVKDRLGNRPEMNYKGRYEITAEDSQEKVADEISFRLQEPKKDLIARVVRIIGNKKAIELLMETAEVEQNGGLFIMNGSRRRTPGGVFLNLLKNTPSISEEQIKDIF
- Interaction with CBC by SEC (CBC [2]): No interaction via SEC
